This sample holds only a part of the variants without activity.
Assays:
biotinyl-Phe-oxazolone = experiment: self-aminoacylation, catalytic enhancement (BFO) (fold over background); higher = more active; k-Seq, kA / k0A0; sequences stand for … in GGGAAUGGAUCCACAUCUACGAAUUC…UUCACUGCAGACUUGACGAAGCUG
Outline: (§1)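 Each biotinyl-aminoacyl-oxazolone, at 2–1250 μM, was incubated with mutagenized RNA pools (0.43 μM) carrying a 21-nt variable region. The 50 μL reactions contained HEPES/NaCl/KCl/MgCl2/CaCl2 buffer with 5% acetonitrile at pH 6.9–7.0 and ran for 90 minutes at room temperature. After streptavidin capture, RNA was measured by qPCR in triplicate and by Illumina sequencing, and catalytic enhancement was calculated as median kA over the uncatalyzed rate from a pseudo-first-order fit of per-sequence fraction reacted.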

biotinyl-Ile-oxazolone = experiment: self-aminoacylation, catalytic enhancement (BIO) (fold over background); higher = more active; k-Seq, kA / k0A0; sequences stand for … in GGGAAUGGAUCCACAUCUACGAAUUC…UUCACUGCAGACUUGACGAAGCUG
Outline: as §1

biotinyl-Met-oxazolone = experiment: self-aminoacylation, catalytic enhancement (BMO) (fold over background); higher = more active; k-Seq, kA / k0A0; sequences stand for … in GGGAAUGGAUCCACAUCUACGAAUUC…UUCACUGCAGACUUGACGAAGCUG
Outline: as §1

biotinyl-Trp-oxazolone = experiment: self-aminoacylation, catalytic enhancement (BWO) (fold over background); higher = more active; k-Seq, kA / k0A0; sequences stand for … in GGGAAUGGAUCCACAUCUACGAAUUC…UUCACUGCAGACUUGACGAAGCUG
Outline: as §1

biotinyl-Val-oxazolone = experiment: self-aminoacylation, catalytic enhancement (BVO) (fold over background); higher = more active; k-Seq, kA / k0A0; sequences stand for … in GGGAAUGGAUCCACAUCUACGAAUUC…UUCACUGCAGACUUGACGAAGCUG
Outline: as §1

biotinyl-Leu-oxazolone = experiment: self-aminoacylation, catalytic enhancement (BLO) (fold over background); higher = more active; k-Seq, kA / k0A0; sequences stand for … in GGGAAUGGAUCCACAUCUACGAAUUC…UUCACUGCAGACUUGACGAAGCUG
Outline: as §1

Sequence | self-aminoacylation (biotinyl-Phe-oxazolone) | self-aminoacylation (biotinyl-Ile-oxazolone) | self-aminoacylation (biotinyl-Met-oxazolone) | self-aminoacylation (biotinyl-Trp-oxazolone) | self-aminoacylation (biotinyl-Val-oxazolone) | self-aminoacylation (biotinyl-Leu-oxazolone)
CUACACUUCAAGCUAUCGGUC [Fam1B.1 aminoacylation ribozyme variant] | 0.833 | 0.87 | 0.746 | 0.608 | 0.876 | 0.692
CUACACUUCAUGCAAUCGGUC [Fam1B.1 aminoacylation ribozyme variant] | 0.689 | 0.707 | 0.623 | 0.496 | 0.693 | 0.516
CUACAGCAAACAAUCGGUCUG [Fam1A.1 aminoacylation ribozyme variant] | 0.421 | 0.48 | 0.482 | 0.574 | 0.65 | 0.577
CUACAUCAAACAACCGGUCUG [Fam1A.1 aminoacylation ribozyme variant] | 1.22 | 0.885 | 1.31 | 1.47 | 1.11 | 1.14
CUACAUCAAACAAUCGGUCUC [Fam1A.1 aminoacylation ribozyme variant] | 1.64 | 0.575 | 0.683 | 0.882 | 0.779 | 0.532
CUACAUCAAACAAUCGGUGUG [Fam1A.1 aminoacylation ribozyme variant] | 0.672 | 0.722 | 1.03 | 0.626 | 0.803 | 1.16
CUACCGCAAACAAUCGGUCUG [Fam1A.1 aminoacylation ribozyme variant] | 2.36 | 0.857 | 0.981 | 0.689 | 0.961 | 0.896
CUACCUCAAAAAAUCGGUCUG [Fam1A.1 aminoacylation ribozyme variant] | 1.28 | 1.02 | 1.41 | 1.3 | 1.01 | 1.49
CUACCUCAAACAAUCAGUCUG [Fam1A.1 aminoacylation ribozyme variant] | 1.74 | 0.649 | 0.588 | 0.702 | 0.647 | 0.671
CUACCUCAAACAAUCGGUCUU [Fam1A.1 aminoacylation ribozyme variant] | 1.34 | 0.996 | 0.623 | 1.65 | 0.865 | 0.784
CUACCUCAAACAAUCGGUGUG [Fam1A.1 aminoacylation ribozyme variant] | 0.583 | 1.19 | 0.952 | 0.845 | 1.11 | 2.02
CUACCUCAAACAAUUGGUCUG [Fam1A.1 aminoacylation ribozyme variant] | 0.81 | 1.08 | 1.08 | 0.733 | 1.04 | 0.824
CUACGUCAAACAAUCCGUCUG [Fam1A.1 aminoacylation ribozyme variant] | 2.75 | 1.25 | 1.43 | 1.18 | 1.24 | 0.974
CUACGUCAAACAAUCGGUCUC [Fam1A.1 aminoacylation ribozyme variant] | 1.24 | 0.998 | 1.09 | 1.32 | 1.04 | 0.765
CUACGUCAAACUAUCGGUCUG [Fam1A.1 aminoacylation ribozyme variant] | 5.88 | 1.58 | 1.95 | 1.58 | 1.76 | 1.72
CUACGUCAAGCAAUCGGUCUG [Fam1A.1 aminoacylation ribozyme variant] | 1.88 | 1.63 | 1.39 | 1.17 | 1.72 | 1.47
CUACUACAAACAAUCGGUCAG [Fam1A.1 aminoacylation ribozyme variant] | 0.636 | 0.561 | 0.547 | 0.537 | 0.646 | 0.414
CUACUACAAACAAUCUGUCUG [Fam1A.1 aminoacylation ribozyme variant] | 0.733 | 0.787 | 0.624 | 0.45 | 0.835 | 0.647
CUACUACAAACAUUCGGUCUG [Fam1A.1 aminoacylation ribozyme variant] | 1.33 | 1.34 | 1.23 | 1.18 | 1.38 | 1.01
CUACUACAAAGAAUCGGUCUG [Fam1A.1 aminoacylation ribozyme variant] | 0.547 | 0.781 | 0.788 | 0.8 | 0.54 | 0.775
CUACUAGAAACAAUCGGUCUG [Fam1A.1 aminoacylation ribozyme variant] | 0.401 | 0.673 | 0.687 | 0.625 | 0.639 | 0.619
CUACUCCAAACAAGCGGUCUG [Fam1A.1 aminoacylation ribozyme variant] | 2.15 | 1.2 | 1.13 | 0.584 | 1.14 | 0.802
CUACUCCAAACAAUCGGUCUU [Fam1A.1 aminoacylation ribozyme variant] | 1.74 | 0.864 | 0.803 | 1.2 | 0.958 | 0.868
CUACUCCAAACUAUCGGUCUG [Fam1A.1 aminoacylation ribozyme variant] | 0.747 | 0.926 | 0.806 | 0.822 | 1.07 | 0.872
CUACUCCGAACAAUCGGUCUG [Fam1A.1 aminoacylation ribozyme variant] | 0.826 | 0.847 | 0.668 | 0.806 | 0.812 | 0.889
CUACUGCAAACAACCGGUCUG [Fam1A.1 aminoacylation ribozyme variant] | 2.5 | 1.02 | 0.762 | 0.804 | 0.836 | 0.953

Sequence | self-aminoacylation (biotinyl-Phe-oxazolone) | self-aminoacylation (biotinyl-Ile-oxazolone) | self-aminoacylation (biotinyl-Met-oxazolone) | self-aminoacylation (biotinyl-Trp-oxazolone) | self-aminoacylation (biotinyl-Val-oxazolone) | self-aminoacylation (biotinyl-Leu-oxazolone)
CUACUGCAAACAAUCGUUCUG [Fam1A.1 aminoacylation ribozyme variant] | 0.732 | 0.702 | 0.818 | 0.574 | 0.735 | 0.647
CUACUGCAAACAAUUGGUCUG [Fam1A.1 aminoacylation ribozyme variant] | 1.18 | 1.19 | 0.966 | 0.956 | 1.07 | 0.823
CUACUGCAAACUAUCGGUCUG [Fam1A.1 aminoacylation ribozyme variant] | 1.14 | 1.02 | 0.824 | 1.18 | 1.12 | 1.17
CUACUGCAGACAAUCGGUCUG [Fam1A.1 aminoacylation ribozyme variant] | 0.577 | 0.897 | 1.06 | 0.497 | 1.04 | 1.07
CUACUGUAAACAAUCGGUCUG [Fam1A.1 aminoacylation ribozyme variant] | 0.659 | 0.897 | 0.887 | 0.53 | 0.741 | 0.863
CUACUUAAAACAAUCGCUCUG [Fam1A.1 aminoacylation ribozyme variant] | 0.52 | 0.623 | 0.706 | 0.462 | 0.727 | 0.481
CUACUUAAAACAAUCGGUCGG [Fam1A.1 aminoacylation ribozyme variant] | 0.727 | 0.878 | 0.786 | 0.59 | 0.74 | 0.857
CUACUUAAAACAAUCGUUCUG [Fam1A.1 aminoacylation ribozyme variant] | 0.579 | 0.568 | 0.592 | 0.503 | 0.57 | 0.432
CUACUUCAAAAAAUCAGUCUG [Fam1A.1 aminoacylation ribozyme variant] | 5.75 | 0.841 | 0.744 | 2.61 | 0.754 | 0.804
CUACUUCAAAAAAUCGAUCUG [Fam1A.1 aminoacylation ribozyme variant] | 1.46 | 0.663 | 0.601 | 0.604 | 0.585 | 0.6
CUACUUCAAAAAAUCGGACUG [Fam1A.1 aminoacylation ribozyme variant] | 3.47 | 0.922 | 0.652 | 2.3 | 0.539 | 0.733
CUACUUCAAAAAAUCGGUGUG [Fam1A.1 aminoacylation ribozyme variant] | 1.89 | 0.889 | 0.946 | 1.53 | 0.814 | 1.31
CUACUUCAAAAAGUCGGUCUG [Fam1A.1 aminoacylation ribozyme variant] | 0.598 | 0.876 | 0.856 | 0.579 | 0.773 | 0.779
CUACUUCAAAAUAUCGGUCUG [Fam1A.1 aminoacylation ribozyme variant] | 1.01 | 1.01 | 0.936 | 0.973 | 0.911 | 0.798
CUACUUCAAACAAACGGCCUG [Fam1A.1 aminoacylation ribozyme variant] | 0.719 | 1.38 | 1.01 | 0.967 | 1.13 | 1.18
CUACUUCAAACAAACGGUCUA [Fam1A.1 aminoacylation ribozyme variant] | 0.773 | 0.751 | 0.665 | 0.537 | 0.742 | 0.696
CUACUUCAAACAAACGGUCUG [Fam1A.1 aminoacylation ribozyme variant] | 0.894 | 0.77 | 0.664 | 0.615 | 0.812 | 0.666
CUACUUCAAACAACCAGUCUG [Fam1A.1 aminoacylation ribozyme variant] | 0.953 | 1.02 | 0.899 | 0.573 | 0.797 | 0.668
CUACUUCAAACAACCGCUCUG [Fam1A.1 aminoacylation ribozyme variant] | 0.457 | 0.776 | 0.774 | 0.619 | 0.769 | 0.547
CUACUUCAAACAACCGGCCUG [Fam1A.1 aminoacylation ribozyme variant] | 2.27 | 1.8 | 2.4 | 1.49 | 1.86 | 1.51
CUACUUCAAACAACCGGUCUG [Fam1A.1 aminoacylation ribozyme variant] | 1.07 | 0.874 | 0.729 | 0.844 | 0.845 | 0.791
CUACUUCAAACAAGCGGACUG [Fam1A.1 aminoacylation ribozyme variant] | 0.818 | 0.91 | 0.81 | 0.644 | 0.896 | 0.631
CUACUUCAAACAAGCGGCCUG [Fam1A.1 aminoacylation ribozyme variant] | 0.592 | 2.41 | 1.32 | 1.68 | 1.83 | 2.08
CUACUUCAAACAAGCGUUCUG [Fam1A.1 aminoacylation ribozyme variant] | 0.391 | 0.481 | 0.499 | 0.503 | 0.499 | 0.517
CUACUUCAAACAAGCUGUCUG [Fam1A.1 aminoacylation ribozyme variant] | 0.642 | 0.733 | 0.7 | 0.356 | 0.734 | 0.795

— the supplement of paper PMC9233669
